The test deals with protein tyrosine kinase activity. Put plainly: Protein tyrosine kinase ELISA on extracts of β-APP-transfected ES double-null cells mixed with PS-1-transfected DAMI cells. It is filed as cell-based. To be noted: 25 μg protein added, 0-20 min after mixing. The protocol: DAMI:ES cells: Equal numbers (0.5×10^6/ml) of β-APP 695 (Selkoe and Podlisny, 2002)-transfected ES double-null cells and PS-1 transfected DAMI cells were co-cultured at 37° C. for various times between 0-20 mins.
At several times between 0 and 20 min after mixing, an aliquot of each cell mixture was rapidly centrifuged, the culture medium was removed, and the cell pellet was suspended in 200 μl of extraction buffer (50 mM Tris, pH 8.0/150 mM NaCl/0.5% Nonidet-P40) containing protease inhibitors (1 mM 4-(2-aminoethyl) benzene sulfonyl fluoride hydrochloride (AEBSF)/1 μg/ml antipain/0.1 μg/ml pepstatin A/0.1 μg/ml leupeptin) and the phosphatase inhibitor sodium orthovanadate (0.1 mM). The mixture was sonicated with three bursts of 20 sec duration and then centrifuged. These extract supernatants were then used for Western blot and ELISA analyses as described below.
ELISAs Protein tyrosine kinase activity was measured by an Enzyme Linked Immunosorbent Assay (ELISA) using a tyrosine kinase assay kit (Upstate Biotechnology). A biotinylated substrate peptide containing tandem repeats of Poly (Glu4-Tyr) was incubated with supernatants of extracts of transfected cells mixed for different times ([…]) in the presence of non-radioactive ATP and a Mn^2+/Mg^2+ co-factor cocktail according to the manufacturer's protocols. […]

B1: N-terminal domain of PS-2 fused to FLAG: fusion protein with FLAG attached at the N-terminus of the PS-2 N-terminal domain (protein)
chain: MLTFMASDSEEEVCDERTSLMSAESPTPRSCQEGRQGPEDGENTAQWRSQENEEDGEEDPDRYVCSGVPGRPPGLEEELTLKYGAKH
modifications: left off: small tags and cut ends
notes: fusion protein with FLAG attached at the N-terminus of the PS-2 N-terminal domain
As for B1, the “transient increase in protein tyrosine kinase activity after cell mixing” value is “very similar transient increases”. Besides, the “transient increase in protein tyrosine kinase activity after cell mixing” value (listed as FLAG-PS-2 N-terminal domain fusion peptide) was “did not inhibit”.

For the origin of these results see patent US10774121B2, “Methods and compositions for treating neurodegenerative disorders and Alzheimer's Disease and improving normal memory” (The Regents of the University of California, priority 2006, dated 2020).
